From US20240376195A1 (BEIGENE, published 2024)
Numbering of substitutions follows the chain as printed.

Legend:
his-tagged human NKp30 [1] = biological target: T1, his-tagged human NKp30 (human, UniProt O14931 19-135); assay: SPR, antibody captured on anti-human Fc surface
T1 construct: Analyte of the SPR assay; not shown: his tag
T1 sequence: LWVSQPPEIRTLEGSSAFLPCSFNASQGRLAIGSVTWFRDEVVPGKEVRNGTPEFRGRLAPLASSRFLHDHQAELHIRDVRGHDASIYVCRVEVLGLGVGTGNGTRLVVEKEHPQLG
Description: (§1) Further engineered versions of humanized monoclonal antibodies were derived from the mutation process described as above and characterized in detail. […] For affinity determination, antibodies were captured by anti-human Fc surface, and used in the affinity assay based on surface plasmon resonance (SPR) technology. All the humanization antibodies shown above were also confirmed for functional activities on primary human immune cells isolated from healthy donors (described in Example 7 below).

his-tagged human NKp30 [2] = biological target: T1, his-tagged human NKp30; assay: SPR, antibody captured on anti-human Fc surface; NKp30 analyte not named in Example 4
Description: as §1

V117A = biological target: T2, V117A; assay: ELISA; 50 ng Nkp30-Fc variant coated, antibody at 20 nM, HRP-linked secondary antibody; signal relative to wild type
T2 construct: single alanine mutant; also called mutant Nkp30-Fc V117A
T2 Fc fusion chain: T1 sequence with V99A
Protocol: (§2) To characterize the binding epitope of BGA1833, 10 amino acid residues of NKp30 were mutated to alanine individually to generate 10 single-mutation NKp30 variants based upon the information from the crystal structure of NKp30 reported previously (Li et al., J Exp Med. 2011 208:703-714). The mutant NKp30 proteins along with the wild-type NKp30 protein were analyzed for their recognition and binding by BGA1833. Another humanized anti-NKp30 antibody, BGA1913, was also analyzed in the same ELISA assay for comparison. In this assay, 50 ng each of wild-type or mutant Nkp30-Fc was coated in an ELISA plate. After blocking, 100 μl of BGA1833 or BGA1913 antibody at a concentration of 20 nM was added to the plate and the binding signal of each antibody was detected by HRP-linked secondary antibody. All ELISA results were normalized using the mean values of the ELISA reading of wild type NKp30-Fc binding signal as the standard. To simplify data analysis, if an antibody's ELISA binding signal for a specific mutant NKp30 dropped to or below 25%, then the amino acid at that site was considered critical to the epitope.

T119A = biological target: T3, T119A; assay: as above
T3 construct: single alanine mutant; also called mutant Nkp30-Fc T119A
T3 Fc fusion chain: T1 sequence with T101A
Protocol: as §2

E111A = biological target: T4, E111A; assay: as above
T4 construct: single alanine mutant; also called mutant Nkp30-Fc E111A
T4 Fc fusion chain: T1 sequence with E93A
Protocol: as §2

E65A = biological target: T5, E65A; assay: as above
T5 construct: single alanine mutant; also called mutant Nkp30-Fc E65A
T5 Fc fusion chain: T1 sequence with E47A
Protocol: as §2

R109A = biological target: T6, R109A; assay: as above
T6 construct: single alanine mutant; also called mutant Nkp30-Fc R109A
T6 Fc fusion chain: T1 sequence with R91A
Protocol: as §2

W20A = biological target: T7, W20A; assay: as above
T7 construct: single alanine mutant; also called mutant Nkp30-Fc W20A
T7 Fc fusion chain: T1 sequence with W2A
Protocol: as §2

K129A = biological target: T8, K129A; assay: as above
T8 construct: single alanine mutant; also called mutant Nkp30-Fc K129A
T8 Fc fusion chain: T1 sequence with K111A
Protocol: as §2

S52A = biological target: T9, S52A; assay: as above
T9 construct: single alanine mutant; also called mutant Nkp30-Fc S52A
T9 Fc fusion chain: T1 sequence with S34A
Protocol: as §2

[3] = biological target: T10, full-length human NKp30 on NK92MI cells (human, UniProt O14931 19-201); assay: flow cytometry on live NK92MI cells over-expressing human NKp30, goat anti-human IgG detection
T10 construct: Full-length human NKp30 over-expressed on NK92MI cells; also called huNKp30; native NKp30
T10 sequence: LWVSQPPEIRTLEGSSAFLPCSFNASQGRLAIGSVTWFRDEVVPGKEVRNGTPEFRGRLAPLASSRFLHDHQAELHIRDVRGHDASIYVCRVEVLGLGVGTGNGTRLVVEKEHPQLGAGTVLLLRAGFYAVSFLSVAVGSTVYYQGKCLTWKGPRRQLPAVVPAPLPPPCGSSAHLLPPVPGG
Protocol: To evaluate the binding activity of anti-NKp30 antibodies to native NKp30 on living cells, NK92MI cells were transfected to over-express human NKp30. Live NK92mi/NKp30 expressing cells were seeded in 96-well plates and were incubated with a serial dilution of anti-NKp30 antibodies. Goat anti-Human IgG was used as secondary antibody to detect antibody binding to the cell surface. EC₅₀ values for dose-dependent binding to human native NKp30 were determined by fitting the dose-response data to the four-parameter logistic model with GraphPad Prism™.

fold lower affinity than the initial antibody (his-tagged human NKp30 [1]): ~10 fold | Kd (his-tagged human NKp30 [2]): 1.92 nM | koff (his-tagged human NKp30 [2]): 0.00278 s⁻¹ | kon (his-tagged human NKp30 [2]): 1.45e+06 M⁻¹ s⁻¹ | binding result (V117A): binds | binding result (T119A): binds | binding result (E111A): binds | binding result (E65A): binds | binding result (R109A): binds | binding result (W20A): binds | binding result (K129A): binds | binding result (S52A): binds | EC50 [3]: 1.31 nM
B1: BGA1833 (antibody, human IgG1, kappa)
heavy: QVQLVQSGAEVKKPGASVKVSCKASGYTFTSSYMHWVRQAPGQGLEWMGEIHPNRDNTNYNEKFKGRVTMTRDTSTSTVYMELSSLRSEDTAVYYCARSYYEYGGAYFDAWGQGTLVTVSSASTKGPSVFPLAPSSKSTSGGTAALGCLVKDYFPEPVTVSWNSGALTSGVHTFPAVLQSSGLYSLSSVVTVPSSSLGTQTYICNVNHKPSNTKVDKKVEPKSCDKTHTCPPCPAPPAAGPSVFLFPPKPKDTLMISRTPEVTCVVVDVSHEDPEVKFNWYVDGVEVHNAKTKPREEQYNSTYRVVSVLTVLHQDWLNGKEYKCKVSNKALAAPIEKTISKAKGQPREPQVYTLPPSRDELTKNQVSLTCLVKGFYPSDIAVEWESNGQPENNYKTTPPVLDSDGSFFLYSKLTVDKSRWQQGNVFSCSVMHEALHNHYTQKSLSLSPGK
light: QIQLTQSPSSLSASVGDRVTITCKASQDVSTAVAWYQQKPGKAPKLLIYAASYRHIGVPSRFSGSGSGTDFTLTISSLQPEDFATYYCQQHYSNPFTFGGGTKVEIKRTVAAPSVFIFPPSDEQLKSGTASVVCLLNNFYPREAKVQWKVDNALQSGNSQESVTEQDSKDSTYSLSSTLTLSKADYEKHKVYACEVTHQGLSSPVTKSFNRGEC
notes: also called BGA1833 (IgG1mf format)
